Source: US20230025129A1 (KYMAB, published 2023)

Columns and labels:
[1] = molecular target: T1, human matriptase-2 ECD protein his tag (human, UniProt Q8IU80 78-811); test: SPR, his-tagged MTP-2 ECD protein (Table W); true KD could not be measured accurately, very slow off-rate
T1 construct: also called human MTP-2 ECD; huMTP-2
T1 sequence: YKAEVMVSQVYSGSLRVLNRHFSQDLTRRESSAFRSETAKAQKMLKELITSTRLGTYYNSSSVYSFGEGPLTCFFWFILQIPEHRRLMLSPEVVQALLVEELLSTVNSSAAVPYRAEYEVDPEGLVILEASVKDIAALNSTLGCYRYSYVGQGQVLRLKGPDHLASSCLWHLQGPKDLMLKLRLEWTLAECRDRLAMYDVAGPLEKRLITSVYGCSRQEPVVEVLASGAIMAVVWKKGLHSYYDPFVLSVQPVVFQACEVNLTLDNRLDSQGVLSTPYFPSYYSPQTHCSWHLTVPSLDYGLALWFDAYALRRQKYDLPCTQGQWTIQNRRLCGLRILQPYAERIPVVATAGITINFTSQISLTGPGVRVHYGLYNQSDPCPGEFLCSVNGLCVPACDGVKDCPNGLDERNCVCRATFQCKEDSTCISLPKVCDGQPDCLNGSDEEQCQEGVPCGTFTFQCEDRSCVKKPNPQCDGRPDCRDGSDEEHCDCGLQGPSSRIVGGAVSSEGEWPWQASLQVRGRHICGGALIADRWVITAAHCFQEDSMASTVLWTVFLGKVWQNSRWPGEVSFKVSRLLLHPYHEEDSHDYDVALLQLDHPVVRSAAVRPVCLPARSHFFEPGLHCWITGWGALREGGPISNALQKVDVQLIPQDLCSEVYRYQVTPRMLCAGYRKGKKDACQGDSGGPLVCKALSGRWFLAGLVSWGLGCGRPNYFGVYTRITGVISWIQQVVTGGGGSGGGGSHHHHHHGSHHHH
Protocol: (§1) Off-rate screening was performed by surface plasmon resonance (SPR), using a Biacore 8K system (GE Healthcare). Anti-human Fc mix (˜1000 RU) were immobilised in both active and reference channels in HBS-P+ buffer (GE BR100671) pH 7.4. Anti-MTP-2 hulgG4PE antibodies were then captured for 60 sec at 10 μl/min at 1 μg/ml concentration (approximatively 35 and 50 RU were captured) only on the active channel. MTP-2 ECD protein analytes were then injected (at 100, 25, 6.25, 1.56 and 0 nM concentrations) for 120 sec (association time) at 30 μl/min and dissociation monitored for 600 sec. Multiple cycle kinetics mode was used with all 8 channels being used. Reference and background were subtracted from the sensorgrams for each antibody and data was fitted using a 1:1 interaction model in the Biacore evaluation software. Rmax, ka, kd globally fitted, RI=0.
(§2) NORI-011, NORI-008, NORI-003 and NORI-006 were all found to have cross-reactive binding to human, mouse, cyno and rat MTP-2 ECD proteins. […] The true KD value for NORI-008 could not be measured accurately for human or mouse MTP-2 due to a very slow off-rate.

[2] = molecular target: T2, mouse matriptase-2 ECD protein his tag (mouse, UniProt Q9DBI0 80-811); test: as above
T2 construct: aa 80-811 of Q9DBI0 with C-terminal linker and His tag; also called mouse MTP-2 ECD; moMTP-2
T2 sequence: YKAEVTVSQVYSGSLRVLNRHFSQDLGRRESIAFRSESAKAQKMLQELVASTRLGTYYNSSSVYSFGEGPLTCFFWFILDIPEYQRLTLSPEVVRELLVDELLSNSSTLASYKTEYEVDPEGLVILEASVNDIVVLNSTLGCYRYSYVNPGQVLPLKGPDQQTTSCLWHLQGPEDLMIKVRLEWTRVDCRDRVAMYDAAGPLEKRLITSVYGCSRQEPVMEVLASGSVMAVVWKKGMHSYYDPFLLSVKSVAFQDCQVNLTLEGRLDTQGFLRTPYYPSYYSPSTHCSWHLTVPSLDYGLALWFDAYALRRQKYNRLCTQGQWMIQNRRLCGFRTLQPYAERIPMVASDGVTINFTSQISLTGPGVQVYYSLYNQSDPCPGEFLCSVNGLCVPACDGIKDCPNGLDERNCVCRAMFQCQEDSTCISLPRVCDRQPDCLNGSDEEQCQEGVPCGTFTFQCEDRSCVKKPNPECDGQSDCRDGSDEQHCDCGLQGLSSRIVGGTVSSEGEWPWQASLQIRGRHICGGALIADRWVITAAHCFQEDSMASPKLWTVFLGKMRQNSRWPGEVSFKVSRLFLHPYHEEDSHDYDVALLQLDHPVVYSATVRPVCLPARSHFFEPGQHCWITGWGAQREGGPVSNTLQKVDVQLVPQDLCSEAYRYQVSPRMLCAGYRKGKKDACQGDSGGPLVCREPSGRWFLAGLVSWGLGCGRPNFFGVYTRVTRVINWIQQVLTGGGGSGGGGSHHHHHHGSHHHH
Protocol: as §1, §2

Kd [1]: 0.0169 pM
Kd [2]: 0.206 pM
B1: NORI-008 (antibody, human IgG4 S228P, kappa, V domains shown)
VH: QVQLQESGPGLVKPSETLSLTCSVSGGSVSSGRYYWTWIRQPPGKGLEWIGYISNSGNTNYNPSLKSRVTISLDTSKKQFSLSLSAVTAADTAVYYCARGFIYDYWFDPWGQGSLVTVSS
VL: DSQMTQSPSSLSASVGDRVTITCQASQDIDNYLNWYQQRPGKAPKLLIYDASKLETGVPSRFSGSGSGTDFTFTISSLQPEDFATYYCQQYGNLPITFGQGTRLDIKR
notes: human IgG4PE, kappa, in the in vitro assays; a mouse IgG1 format was used in one in vivo study only; also called NORI-008 hulgG4PE; NORI-008 IgG
